In US6960559:

Key:
[1] = test system: T1, cbz-FAF[125I]Y-NH2
T1 sequence: FAFY

[2] = target: rat CNS myelin (spinal cord myelin membrane fraction); assay: cell-based or functional assay
[3] = target: rat CNS myelin (spinal cord myelin membrane fraction); assay: solid phase radioimmunoassay, antigen-coated wells, hybridoma supernatant, 125I goat anti-mouse, background subtracted
[4] = target: rat PNS myelin (sciatic nerve myelin membrane fraction); assay: as above
[5] = target: rat CNS myelin, trypsin-treated; assay: as above
[6] = target: 250 kD CNS myelin associated inhibitory protein from rat CNS myelin (rat); assay: solid phase radioimmunoassay on liposomes with gel-extracted protein, 125I goat anti-mouse, background subtracted
[7] = target: 35 kD CNS myelin associated inhibitory protein from rat CNS myelin (rat); assay: as above
[8] = target: CNS myelin protein liposomes (total rat CNS myelin protein reconstituted in lipid vesicles); assay: cell-based or functional assay
[9] = target: 250 kD CNS myelin associated inhibitory protein from rat CNS myelin (rat); assay: cell-based or functional assay
[10] = target: 35 kD CNS myelin associated inhibitory protein from rat CNS myelin (rat); assay: cell-based or functional assay

tissue-type plasminogen activator (tPA), sequence (P00750 36-562): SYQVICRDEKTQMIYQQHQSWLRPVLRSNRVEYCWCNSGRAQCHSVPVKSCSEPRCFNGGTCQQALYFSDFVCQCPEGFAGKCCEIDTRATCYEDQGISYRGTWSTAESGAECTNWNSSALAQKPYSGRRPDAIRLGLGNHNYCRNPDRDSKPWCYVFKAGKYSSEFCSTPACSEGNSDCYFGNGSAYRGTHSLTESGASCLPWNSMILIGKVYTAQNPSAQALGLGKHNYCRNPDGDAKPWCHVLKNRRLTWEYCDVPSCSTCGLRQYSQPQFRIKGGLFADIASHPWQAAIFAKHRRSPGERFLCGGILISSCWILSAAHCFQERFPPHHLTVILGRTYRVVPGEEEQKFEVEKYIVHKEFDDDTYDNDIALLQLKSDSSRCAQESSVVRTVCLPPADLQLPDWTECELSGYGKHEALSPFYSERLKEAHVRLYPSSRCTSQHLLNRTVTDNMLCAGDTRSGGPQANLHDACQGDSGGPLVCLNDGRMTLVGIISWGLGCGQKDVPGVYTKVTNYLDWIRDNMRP

In the case of “C6 plasma membrane associated metalloendoprotease (rat C6 glioblastoma cells)”, the Amount necessary to degrade 50% of substrate in 30 min [µg], total C6 PM protein [1] is reported as 1.5 µg and the “cbz-FAF[125I]Y-NH2 degradation by the plasma membrane fraction (5 µg)” value [1] is reported as 2.7 nmol/min.

For “C6 plasma membrane associated metalloendoprotease (rat C6 glioblastoma cells) (enzyme)”, the 3H-Thymidine Incorporation (%) of 3T3 cells on CNS myelin preincubated with C6 PM (untreated CNS myelin: 30) [2] was 83% and the 3T3 Cell Spreading (%) on CNS myelin preincubated with C6 PM (untreated CNS myelin: 15) [2] was 52%.

cathepsin D was tested, and the Amount necessary to degrade 50% of substrate in 30 min [µg], pH 4.0 [1] was 0.005 µg and the Amount necessary to degrade 50% of substrate in 30 min [µg], pH 7.4 [1] was > 100 µg.

collagenase was tested, and the Amount necessary to degrade 50% of substrate in 30 min [1] was 3 µg.

In the case of monoclonal antibody IN-1, the Amount of Antibody Bound (cpm of 125I-Labeled Goat Anti-Mouse) [3] is reported as 550 cpm, the Amount of Antibody Bound (cpm of 125I-Labeled Goat Anti-Mouse) [4] is reported as 80 cpm and the Amount of Antibody Bound (cpm of 125I-Labeled Goat Anti-Mouse) [5] is reported as 25 cpm. The Amount of Antibody Bound (cpm of 125I-Labeled Goat Anti-Mouse) [6] was 250 cpm, the Amount of Antibody Bound (cpm of 125I-Labeled Goat Anti-Mouse) [7] was 350 cpm and the 3T3 Spreading (µm^2) on liposomes of IN-1-immunoprecipitated myelin protein, Protocol 1 [2] was 218 µm^2. It also gave a 3T3 Spreading (µm^2) on liposomes of IN-1-immunoprecipitated myelin protein, Protocol 2 [2] of 215 µm^2, a 3T3 spreading value on CNS lipos. preadsorbed with IN-1 (no antibody: 1.11) [8] of 2030 µm^2 and a % inhibition of 3T3 spreading on CNS lipos. preadsorbed with IN-1 (no antibody: 45) [8] of 10%. For the same substance, the % inhibition of C6 spreading on CNS lipos. preadsorbed with IN-1, 0.3 mM 1,10-phenanthroline (no antibody: 46) [8] was 11%, the C6 spreading value on CNS lipos. preadsorbed with IN-1, 0.3 mM 1,10-phenanthroline (no antibody: 1.35) [8] was 2250 µm^2 and the 3T3 Spreading (µm^2) on 250 kD liposomes made from IN-1-precipitated protein, Protocol 2 [9] was 245 µm^2. It also gave a 3T3 Spreading (µm^2) on 35 kD liposomes made from IN-1-precipitated protein, Protocol 2 [10] of 270 µm^2.

For tissue-type plasminogen activator (tPA), the Amount necessary to degrade 50% of substrate in 30 min [1] was > 100 µg.

Substance trypsin has an Amount necessary to degrade 50% of substrate in 30 min [1] of 0.3 µg.

In the case of urokinase (uPA), the Amount necessary to degrade 50% of substrate in 30 min [1] is reported as > 100 µg.
